Data from patent US20230174608A1 (published 2023).

Assays:
[1] = target: GLP-1 receptor (GLP-1R), stably expressed on HEK293 cells; assay: cell-based or functional assay
[2] = target: Glucagon receptor (GCGR), stably expressed on HEK293 cells; assay: cell-based or functional assay

GLP-1R (nM EC50), receptor-mediated cAMP production in HEK293 cells [1]: 0.291 nM
GCGR (nM EC50), receptor-mediated cAMP production in HEK293 cells [2]: 1.04 nM
B1: dgc003 (peptide)
peptide: HXQGTFTSDYSKYLDERAAKEFIAWLEAGG
HELM: PEPTIDE1{H.[Aib].Q.G.T.F.T.S.D.Y.S.K.Y.L.D.E.R.A.A.K.E.F.I.A.W.L.E.A.G.G.[am]}|PEPTIDE2{[CCCCCCCCCCCCCCCC(=O)[*:2]].[gGlu]}$PEPTIDE1,PEPTIDE2,20:R3-2:R2$$$V2.0; N-terminus assumed
SMILES: CCCCCCCCCCCCCCCC(=O)N[C@@H](CCC(=O)NCCCC[C@H](NC(=O)[C@H](C)NC(=O)[C@H](C)NC(=O)[C@H](CCCNC(=N)N)NC(=O)[C@H](CCC(=O)O)NC(=O)[C@H](CC(=O)O)NC(=O)[C@H](CC(C)C)NC(=O)[C@H](Cc1ccc(O)cc1)NC(=O)[C@H](CCCCN)NC(=O)[C@H](CO)NC(=O)[C@H](Cc1ccc(O)cc1)NC(=O)[C@H](CC(=O)O)NC(=O)[C@H](CO)NC(=O)[C@@H](NC(=O)[C@H](Cc1ccccc1)NC(=O)[C@@H](NC(=O)CNC(=O)[C@H](CCC(N)=O)NC(=O)C(C)(C)NC(=O)[C@@H](N)Cc1c[nH]cn1)[C@@H](C)O)[C@@H](C)O)C(=O)N[C@@H](CCC(=O)O)C(=O)N[C@@H](Cc1ccccc1)C(=O)N[C@H](C(=O)N[C@@H](C)C(=O)N[C@@H](Cc1c[nH]c2ccccc12)C(=O)N[C@@H](CC(C)C)C(=O)N[C@@H](CCC(=O)O)C(=O)N[C@@H](C)C(=O)NCC(=O)NCC(N)=O)[C@@H](C)CC)C(=O)O
